Results taken from PMC8245648, “The R2R3-type MYB transcription factor MdMYB90-like is responsible for the enhanced skin color of an apple bud sport mutant”.

T1: MdMYB90-like (Malus domestica (Fuji apple / M_Fuji …, UniProt A0A498J9W0 1-206))
T1 sequence: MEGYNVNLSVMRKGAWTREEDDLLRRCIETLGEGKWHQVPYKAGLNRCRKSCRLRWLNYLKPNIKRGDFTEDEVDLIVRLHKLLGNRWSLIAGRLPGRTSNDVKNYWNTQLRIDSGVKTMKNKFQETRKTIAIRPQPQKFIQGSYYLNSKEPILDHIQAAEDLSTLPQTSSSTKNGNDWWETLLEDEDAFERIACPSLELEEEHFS

B1: CHS probe (dsDNA)
DNA 1: GACTAATTTCAACTGCTCCCAAAGT
DNA 2: ACTTTGGGAGCAGTTGAAATTAGTC
B2: UFGTm probe (dsDNA)
DNA 1: TGGTACAAATGGTAACAATAAAATA
DNA 2: TATTTTATTGTTACCATTTGTACCA
B3: BHLH3 probe (dsDNA)
DNA 1: CCTGCTCACTAACCAATCAAACCCA
DNA 2: TGGGTTTGATTGGTTAGTGAGCAGG
B4: CHSm probe (dsDNA)
DNA 1: GACTAATTTTGGTAACTCCCAAAGT
DNA 2: ACTTTGGGAGTTACCAAAATTAGTC
B5: MYB1 probe (dsDNA)
DNA 1: CGGACCACTCAACGGAACAAATAAG
DNA 2: CTTATTTGTTCCGTTGAGTGGTCCG
B6: BHLH3m probe (dsDNA)
DNA 1: CCTGCTCACTGGTAAATCAAACCCA
DNA 2: TGGGTTTGATTTACCAGTGAGCAGG
B7: MYB1m probe (dsDNA)
DNA 1: CGGACCACTTGGTAAAACAAATAAG
DNA 2: CTTATTTGTTTTACCAAGTGGTCCG
B8: UFGT probe (dsDNA)
DNA 1: TGGTACAAACAACTGCAATAAAATA
DNA 2: TATTTTATTGCAGTTGTTTGTACCA

Columns and labels:
MdMYB90-like [1] = biological target: T1, MdMYB90-like; assay: EMSA; EMSA, Beyotime Chemiluminescent EMSA Kit, 1x kit binding buffer, 10 uL total; salt, pH and temperature not stated; details: protein: recombinant; tags: MBP (pMAL-c5X fusion); label: biotin; blunt
MdMYB90-like [2] = biological target: T1, MdMYB90-like; assay: competition; unlabeled mutant did not reduce binding to N3; EMSA, Beyotime Chemiluminescent EMSA Kit, 1x kit binding buffer, 10 uL total; salt, pH and temperature not stated; details: protein: recombinant; tags: MBP (pMAL-c5X fusion); blunt
MdMYB90-like [3] = biological target: T1, MdMYB90-like; assay: competition; unlabeled mutant did not reduce binding to N1; EMSA, Beyotime Chemiluminescent EMSA Kit, 1x kit binding buffer, 10 uL total; salt, pH and temperature not stated; details: protein: recombinant; tags: MBP (pMAL-c5X fusion); blunt
MdMYB90-like [4] = biological target: T1, MdMYB90-like; assay: competition; unlabeled mutant did not reduce binding to N5; EMSA, Beyotime Chemiluminescent EMSA Kit, 1x kit binding buffer, 10 uL total; salt, pH and temperature not stated; details: protein: recombinant; tags: MBP (pMAL-c5X fusion); blunt
MdMYB90-like [5] = biological target: T1, MdMYB90-like; assay: competition; unlabeled mutant did not reduce binding to N7; EMSA, Beyotime Chemiluminescent EMSA Kit, 1x kit binding buffer, 10 uL total; salt, pH and temperature not stated; details: protein: recombinant; tags: MBP (pMAL-c5X fusion); blunt

Row | Binder | binding result (MdMYB90-like [1]) | also measured
1 | B1 | binds | –
2 | B2 | – | binding result (MdMYB90-like [2]): no binding
3 | B3 | binds | –
4 | B4 | – | binding result (MdMYB90-like [3]): no binding
5 | B5 | binds | –
6 | B6 | – | binding result (MdMYB90-like [4]): no binding
7 | B7 | – | binding result (MdMYB90-like [5]): no binding
8 | B8 | binds | –
